Source: publication PMC2139828

Key:
Test in all cases: SDS-PAGE under nonreducing conditions
[1] = molecular target: rFN(AC), recombinant human fibronectin isoform containing EDA but lacking EDB (human)
[2] = molecular target: rFN(BAC), recombinant human fibronectin isoform containing both EDA and EDB segments (human)
[3] = molecular target: rFN(C), recombinant human fibronectin isoform lacking both EDA and EDB segments (human)

## rFN(AC), recombinant human fibronectin isoform containing EDA but lacking EDB (natural protein)
[1]
  stoichiometry N: 2

## rFN(BAC), recombinant human fibronectin isoform containing both EDA and EDB segments (natural protein)
[2]
  stoichiometry N: 2

## rFN(C), recombinant human fibronectin isoform lacking both EDA and EDB segments (natural protein)
[3]
  stoichiometry N: 2
